Measurements reported in the RNAGym collection of RNA variant scans (doi:10.1073/pnas.2313332121).

B1: TPR t1 (parent)
chain: GACCAAUCUGCCCUCAGAGCUCGAGAACAUCUUCGGAUGCAGAGGAGGCAGGCUUCGGUGGCGCGAUAGCGCCAACGUCCUCAACCUCCAAUGCAUCCCACCACAUGAUGAUGCCUGAAGAGCCUUGGUUUUUUG

Variants of: B1
Assay: polymerase ribozyme fitness, log enrichment relative to wild type (log ratio); higher = more active; in vitro selection for triplet polymerase activity
Method in brief: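 Frozen incubation at −7 °C formed the core of a single, triplicate in vitro selection round applied to PCR-built, transcribed mutant libraries of each subunit of a heterodimeric triplet polymerase ribozyme. Extended constructs were gel-excised, captured with streptavidin beads and amplified by RT-PCR, and input and output libraries were Illumina-sequenced with a filter of ≥10 input reads and ≥1 read per output. Fitness is the logarithm of genotype enrichment relative to wild-type enrichment, with inverse-variance-weighted replicate averaging, and the logarithm is base 2.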

| Variant | polymerase ribozyme fitness (log ratio) |
| --- | --- |
| G44C C72U A75C U92G | -2.94 |
| C72A C79G | -1.13 |
| A6U G71U G110A G127U U133G | -2.25 |
| C20U C115U | -1.73 |
| G61A U116G | -3.01 |
| G17U C34A C124G U133A | -2.78 |
| C13U A16C C73A A95U G117U C124G | -1.04 |
| U7A G44C | -0.264 |
| U30C G63U C85U | -5.85 |
| U21G U55G U112A | 1.42 |
| U30G C79G U106A | -3.54 |
| G61A G122A | -0.219 |
| U9A G36U | 0.766 |
| C13G A50G U106A C124A G127U | 1.19 |
| U7G G93U G113A | -1.85 |
| C34U U78G | -5.06 |
| G45A C86A | -1.9 |
| U7G U116G | -1.53 |
| C12U A46C C53G U106A | -0.663 |
| C11U G57A G58U G63U G77U C82G U106A | -3.25 |
| U54A C73A C79A G107C A119G | -6.96 |

| Variant | polymerase ribozyme fitness (log ratio) |
| --- | --- |
| A27G U38A | -3.17 |
| A26C G69C G117C | -6.27 |
| A5C U9A C40U G63U G135U | -2.96 |
| C13A C88G | -3.12 |
| G48A G61U U112A U125G G127C | -0.619 |
| A37U C70U C79U | -0.766 |
| U7A C40U G110A | -1.33 |
| U9A G44U C56U G122A | -0.525 |
| C72U G93A C115U | -1.52 |
| U9C A41C A118U A119G | 0.0807 |
| G36U G47U G61A | -4.11 |
| A2U G71C C101U G127U | -2.85 |
| C56G A91C C123A | 0.632 |
| C8G C28G C64U U116G A121G | -2.9 |
| G71U C97A C115U A119G | -5.37 |
| C53G A75U C88A | -0.918 |
| A26U C49A G60A G110A | -4.81 |
| C4A U59C A90C | -3.84 |
| C4U A18G G58A G69U | -2.44 |
| U21A G42C U59C U130G | -2.41 |
| A66U G71A | -2.53 |

| Variant | polymerase ribozyme fitness (log ratio) |
| --- | --- |
| G45A C70A C85A U133C | -4.78 |
| C3G G61U C104A | -3.47 |
| C3U A46U C73A U87A | -0.663 |
| C8G G19A A119G | -1.07 |
| C12A C22U G45U C49U A68C G120U | -7.43 |
| U54G U55G C73A C102G G110U G120C | -7.7 |
| U54A C88G G135U | -1.43 |
| C34A G39U C98A | -3.78 |
| C40A C49A C53U G110A U130G | -4.63 |
| C4U G113A | -1.15 |
| G69C G117C | -3.97 |
| U7A G10C C56U C62U C80A A84U G110A C124A U133A | -7.38 |
| G107A G120U | -4.71 |
| A90U G93A G110A U131G | -5.42 |
| G36C G57U A90C U106A | -3.67 |
| G44A G69U C104A | -1.28 |
| G47U C49G A50C G57U | -1.42 |
| G48U G69C | -2.22 |
| A29C A66G G120A | -2.9 |
| C62U G63U U109G | -7.47 |
| C13U G71U | -0.508 |

| Variant | polymerase ribozyme fitness (log ratio) |
| --- | --- |
| C62U G113U | -3.01 |
| C49U G57U G110C | -4.9 |
| U32C G45A G63C C114U | -2.97 |
| G48U U116C | -1.64 |
| U38A G63A G93U | -4.96 |
| C3U C20A | -2.93 |
| G69C C102U A108C A111G C115U U130A | -6.19 |
| C11U A27U C72U U78G A121U | -0.173 |
| U32C C49G G52C U96C | -1.52 |
| U7G C56U | 0.612 |
| U32C G42A C56U C115U | -1.93 |
| C8A U96C U116G | -0.0172 |
| G19C U78C A90G G113U C114U | -0.588 |
| U33A A68U | -7.2 |
| C28A C73A C124G | -3.22 |
| C80U C115A G120A U125A | -1.71 |
| C80U C101U | -0.367 |
| G77C U78C A105G A119G | -1.64 |
| C12A A41G | -0.758 |
| A50G C82U | 0.198 |
| G36U A105C G135U | -4.66 |
